The text below walks through data of publication PMC3213152.

For assay [1], the target named is Rck, outer membrane protein of Salmonella enterica serovar Typhimurium, expressed on E. coli BL21(DE3) from plasmid pRck (Salmonella enterica serovar Typhimurium strain SL1344) (UniProt Q04817). Nature of the assay: flow cytometry on cells; E. coli BL21(DE3) pRck in DPBS with purified C4BP (increasing amounts) or with wt C4BP or recombinant CCP deletion mutants at 10 µg/ml, 37°C; detected with sheep polyclonal anti-human C4BP; MFI of wt C4BP set to 100%. (A flow cytometer gives signals particle by particle.)

For assay [2] the target is unchanged. Nature of the assay: flow cytometry on cells; E. coli BL21(DE3) pRck with wt C4BP or the CCP7 or CCP8 deletion mutant (10 µg/ml); detected with monoclonal anti-C4BP MK104, specific for CCP1 of the α-chain; MFI of wt C4BP set to 100%.
Assay [3] addresses Rck G118D mutant (Salmonella enterica serovar Typhimurium) (UniProt Q04817). The experiment in a line: flow cytometry on cells; data not shown: FACS analysis with purified C4BP on the Rck G118D mutant against wt Rck.

Turning to “Recombinant human C4BP mutant with CCP8 of the α-chain deleted (from UniProt P04003 49-597) (complex)”, the figures for the percent reduction in binding against wt C4BP in assay [1] and in assay [2] were 60% and 78%, respectively.
In assay [3], “Human C4b-binding protein (C4BP) (from UniProt P04003 49-597; P20851 18-252) (complex)” showed a fold less C4BP bound than by wt Rck of 24 fold.
Consider “Recombinant human C4BP mutant with CCP7 of the α-chain deleted (from UniProt P04003 49-597) (complex)”, for which the percent reduction in binding against wt C4BP in assay [1] stood at 70%; in assay [2], 84%.
